Read-outs that look alike come from different tables or passages of the source. Values belong to the substance of their own block, whether it stands above or below them.
Assays:
[1] = molecular target: full-length human IL-36R on cells (human) (UniProt Q9HB29); assay: cell-based or functional assay
[2] = molecular target: Macaca fascicularis IL-36R on cells (Macaca fascicularis); assay: cell-based or functional assay
[3] = molecular target: full-length human IL-36R on cells (human) (UniProt Q9HB29)
[4] = molecular target: full-length human IL-36R on cells (human) (UniProt Q9HB29); remark: listed apart in the source
[5] = molecular target: full-length human IL-36R on cells (human) (UniProt Q9HB29); remark: listed apart in the source
[6] = molecular target: full-length human IL-36R on cells (human) (UniProt Q9HB29); remark: listed apart in the source
[7] = molecular target: T1, human IL-36R (IL1RL2) on primary human cells (human) (UniProt Q9HB29); assay: cell-based or functional assay
T1 sequence (looked up): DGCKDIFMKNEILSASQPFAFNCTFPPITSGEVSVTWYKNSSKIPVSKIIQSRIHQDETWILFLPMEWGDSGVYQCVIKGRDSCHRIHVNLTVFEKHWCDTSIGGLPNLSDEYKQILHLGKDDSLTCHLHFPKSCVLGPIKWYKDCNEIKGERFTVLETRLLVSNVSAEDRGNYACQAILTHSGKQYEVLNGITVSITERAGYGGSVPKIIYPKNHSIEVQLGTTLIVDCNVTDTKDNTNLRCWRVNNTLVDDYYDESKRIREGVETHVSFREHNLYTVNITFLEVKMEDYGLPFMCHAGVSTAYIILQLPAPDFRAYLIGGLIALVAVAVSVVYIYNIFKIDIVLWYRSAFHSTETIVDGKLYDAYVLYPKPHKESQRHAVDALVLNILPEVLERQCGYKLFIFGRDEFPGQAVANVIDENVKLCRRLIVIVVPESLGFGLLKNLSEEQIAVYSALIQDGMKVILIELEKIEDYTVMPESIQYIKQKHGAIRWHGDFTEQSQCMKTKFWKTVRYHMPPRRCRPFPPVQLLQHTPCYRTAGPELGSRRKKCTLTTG

Macaca fascicularis IL-36R on cells (Macaca fascicularis), sequence (chain, as listed by the source): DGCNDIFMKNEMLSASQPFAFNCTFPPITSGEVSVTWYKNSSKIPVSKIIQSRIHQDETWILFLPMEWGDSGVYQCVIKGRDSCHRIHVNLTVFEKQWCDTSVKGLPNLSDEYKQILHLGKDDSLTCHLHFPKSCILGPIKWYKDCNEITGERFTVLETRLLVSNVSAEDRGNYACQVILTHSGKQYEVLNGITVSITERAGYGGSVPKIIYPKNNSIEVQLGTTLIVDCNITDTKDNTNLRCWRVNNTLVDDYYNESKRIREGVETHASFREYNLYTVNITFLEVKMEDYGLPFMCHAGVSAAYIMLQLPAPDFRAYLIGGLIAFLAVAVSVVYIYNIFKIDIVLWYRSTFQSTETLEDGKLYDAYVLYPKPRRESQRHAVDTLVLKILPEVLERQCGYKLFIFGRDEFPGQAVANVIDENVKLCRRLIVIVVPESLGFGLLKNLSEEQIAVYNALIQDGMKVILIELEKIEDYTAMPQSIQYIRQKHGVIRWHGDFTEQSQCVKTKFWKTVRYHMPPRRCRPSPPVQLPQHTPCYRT

- EC50, NFκB-luciferase, HEK293/NFκB-luc/hIL-36R cells [1]: 12 pM
- EC50, NFκB-luciferase, HEK293/NFκB-luc/MfIL-36R cells [2]: 170 pM
- EC50 (read off the curve) of hIL36α, NFκB-luciferase RLU, in the presence of 0.3 nM REGN6490 [3]: 50 pM
- EC50 (read off the curve) of hIL36α, NFκB-luciferase RLU, in the presence of 1 nM REGN6490 [3]: 200 pM
- EC50 (read off the curve) of hIL36α, NFκB-luciferase RLU, in the presence of 3 nM REGN6490 [3]: 700 pM
- EC50 (read off the curve) of hIL36α, NFκB-luciferase RLU, in the presence of 9 nM REGN6490 [3]: 2000 pM
- EC50 (read off the curve) of hIL36α, NFκB-luciferase RLU, in the presence of 0.1 nM REGN6489 [4]: 40 pM
- EC50 (read off the curve) of hIL36α, NFκB-luciferase RLU, in the presence of 0.3 nM REGN6489 [4]: 200 pM
- EC50 (read off the curve) of hIL36α, NFκB-luciferase RLU, in the presence of 1 nM REGN6489 [4]: 600 pM
- EC50 (read off the curve) of hIL36α, NFκB-luciferase RLU, in the presence of 3 nM REGN6489 [4]: 2000 pM
- EC50 (read off the curve) of hIL36α, NFκB-luciferase RLU, in the presence of 9 nM REGN6489 [4]: 5000 pM
- EC50 (read off the curve) of hIL36α, NFκB-luciferase RLU, no antibody [4]: 20 pM
Substance: human IL-36α (from UniProt Q9UHA7 6-158) (ligand)

- EC50, NFκB-luciferase, HEK293/NFκB-luc/hIL-36R cells [1]: 8.4 pM
- EC50, NFκB-luciferase, HEK293/NFκB-luc/MfIL-36R cells [2]: 62 pM
- EC50 (read off the curve) of hIL36γ, NFκB-luciferase RLU, in the presence of 0.1 nM REGN6489 [5]: 2 pM
- EC50 (read off the curve) of hIL36γ, NFκB-luciferase RLU, in the presence of 0.3 nM REGN6489 [5]: 8 pM
- EC50 (read off the curve) of hIL36γ, NFκB-luciferase RLU, in the presence of 1 nM REGN6489 [5]: 30 pM
- EC50 (read off the curve) of hIL36γ, NFκB-luciferase RLU, in the presence of 3 nM REGN6489 [5]: 100 pM
- EC50 (read off the curve) of hIL36γ, NFκB-luciferase RLU, in the presence of 9 nM REGN6489 [5]: 300 pM
- EC50 (read off the curve) of hIL36γ, NFκB-luciferase RLU, no antibody [5]: 1 pM
- EC50 (read off the curve) of hIL36γ, NFκB-luciferase RLU, in the presence of 0.3 nM REGN6490 [6]: 4 pM
- EC50 (read off the curve) of hIL36γ, NFκB-luciferase RLU, in the presence of 1 nM REGN6490 [6]: 20 pM
- EC50 (read off the curve) of hIL36γ, NFκB-luciferase RLU, in the presence of 3 nM REGN6490 [6]: 60 pM
- EC50 (read off the curve) of hIL36γ, NFκB-luciferase RLU, in the presence of 9 nM REGN6490 [6]: 200 pM
- EC50 (read off the curve) of hIL36γ, NFκB-luciferase RLU, no antibody [6]: 3 pM
Substance: human IL-36γ (from UniProt Q9NZH8 18-169) (ligand)

- EC50[M], IL-8 production, Intestinal MyoFibroblasts (InMyoFib), hIL-36α [7]: 1.41e-09 M
- EC50[M], IL-8 production, Normal Epidermal Keratinocytes (NHEK), hIL-36α [7]: 1.43e-09 M
- EC50[M], IL-8 production, PB-derived CD14+ Monocytes, hIL-36α [7]: 2.75e-09 M
Substance: rhIL-36α/IL-1F6 [aa6-158] (from UniProt Q9UHA7 6-158) (ligand)

- EC50[M], IL-8 production, Intestinal MyoFibroblasts (InMyoFib), hIL-36γ [7]: 1.46e-09 M
- EC50[M], IL-8 production, Normal Epidermal Keratinocytes (NHEK), hIL-36γ [7]: 4e-09 M
- EC50[M], IL-8 production, PB-derived CD14+ Monocytes, hIL-36γ [7]: 2.75e-09 M
Substance: rhIL-36γ/IL-1F9 [aa18-169] (from UniProt Q9NZH8 18-169) (ligand)

— patent US20200017592A1
